In patent publication US12533409B2, “Compositions and methods for targeting mutant RAS” (The Trustees of the University of Pennsylvania, priority 2019, dated 2026):

B1: TCR847: TCR construct, TRAV17 and TRBV10-3; fusion protein SEQ ID NO: 80; HLA-B*07:02 (protein)
chain: METLLGVSLVILWLQLARVNSQQGEEDPQALSIQEGENATMNCSYKTSINNLQWYRQNSGRGLVHLILIRSNEREKHSGRLRVTLDTSKKSSSLLITASRAADTASYFCATFPNFGNEKLTFGTGTRLTIIPNIQNPDPAVYQLRDSKSSDKSVCLFTDFDSQTNVSQSKDSDVYITDKTVLDMRSMDFKSNSAVAWSNKSDFACANAFNNSIIPEDTFFPSPESSCDVKLVEKSFETDTNLNFQNLSVIGFRILLLKVAGFNLLMTLRLWSSGSGEGRGSLLTCGDVEENPGPMGTRLFFYVALCLLWTGHMDAGITQSPRHKVTETGTPVTLRCHQTENHRYMYWYRQDPGHGLRLIHYSYGVKDTDKGEVSDGYSVSRSKTEDFLLTLESATSSQTSVYFCAISESERYYEQYFGPGTRLTVTEDLKNVFPPEVAVFEPSEAEISHTQKATLVCLATGFYPDHVELSWWVNGKEVHSGVSTDPQPLKEQPALNDSRYCLSSRLRVSATFWQNPRNHFRCQVQFYGLSENDEWTQDRAKPVTQIVSAEAWGRADCGFTSESYQQGVLSATILYEILLGKATLYAVLVSALVLMAMVKRKDSRG
modifications: TCR847 FUSION
notes: TCR construct, TRAV17 and TRBV10-3; HLA-B*07:02

Tests used:
[1] = target: HLA-B*07:02 (Homo sapiens, UniProt P01889); experiment: HLA class I immunoprecipitation peptide elution and tandem Mass Spec (MS/MS), monoallelic K562 RAS TMG cell lines; assay type: cell-based; set-up: expressed in transfected cells; host or cells: K562, lentiviral HLA construct plus RAS tandem minigene construct; details: B*07:02-restricted; antigen processing/presentation
Text: (§1) Additional antigen processing and presentation studies were done using mass spectrometry. First, monoallelic K562 cell lines were created to express specific HLA types (FIG. 7A). Further, lentiviral constructs expressing various wt RAS and mRAS peptides were generated (FIG. 7E). Monoallelic cell lines that express specific HLA types and the various RAS and mRAS peptides were then created. The expression of HLA class I and HLA-specific expression of RAS TMG cells lines were verified by FACS (FIG. 7C and FIG. 7D).
(§2) Further, novel epitopes are identified for HLA-B*07:02.

[2] = target: T1, HLA-A*11:01 (Homo sapiens, UniProt P04439, A114D/D185E/E176A/F33Y/L180Q/S129P/T187R); experiment: Competitive peptide binding fluorescence polarization assay; details: peptide-MHC binding; strong binding affinity indicated by log[IC50]<3.7 (FIG. 6A)
Experimental: (§3) Experiments were also conducted to examine peptide-MHC binding.

[3] = target: T1, HLA-A*11:01; experiment: HLA class I immunoprecipitation peptide elution and tandem Mass Spec (MS/MS), monoallelic K562 RAS TMG cell lines; assay type: cell-based; set-up: expressed in transfected cells; host or cells: K562, lentiviral HLA construct plus RAS tandem minigene construct; details: A*11:01-restricted; antigen processing/presentation
Text: as §1, §2

[4] = target: T2, HLA-A*03:01 (Homo sapiens, UniProt P04439); experiment: as above; assay type: cell-based; set-up: expressed in transfected cells; host or cells: K562, lentiviral HLA construct plus RAS tandem minigene construct; details: A*03:01-restricted; antigen processing/presentation
Text: as §1, §2

[5] = target: T2, HLA-A*03:01; experiment: Competitive peptide binding fluorescence polarization assay; details: peptide-MHC binding; strong binding affinity indicated by log[IC50]<3.7 (FIG. 6A)
Experimental: as §3

[6] = system: alternatively mutated RAS epitopes; experiment: Jurkat Reporter assay of TCR specificity and cross-reactivity; assay type: cell-based; details: Jurkat Reporter cells; HLA-B*07:02-restricted TCR
Experimental: (§4) Further experiments were conducted to characterize TCR896 expression and function. TCR896 expression was validated by peptide-MHC multimer staining of lentiviral-transduced Jurkat Reporter cells, as shown in FIG. 28A. FIG. 28B depicts the results of experiments assessing TCR896 avidity by Jurkat Reporter cells. Experiments were conducted assessing TCR specificity and cross-reactivity to alternative mutant RAS epitopes by Jurkat Reporter assay. […] FIG. 28D depicts TCR activation of Jurkat Reporter cells following coculture with A*03:01 positive RAS G12V tumor cell lines.
(§5) Further experiments were done to characterize TCR847 expression and function. TCR847 expression was validated by peptide-MHC multimer staining of lentiviral-transduced Jurkat Reporter cells, as shown in FIG. 29A. FIG. 29B depicts the results of experiments assessing TCR specificity and cross-reactivity to alternative mutant RAS epitopes by Jurkat Reporter assay.
(§6) Further experiments were conducted to characterize TCR864 expression and function. TCR864 expression was validated by peptide-MHC multimer staining of lentiviral-transduced Jurkat Reporter cells, as shown in FIG. 30A. FIG. 30B depicts the results of experiments assessing TCR864 avidity by Jurkat Reporter cells. Experiments were conducted to examine TCR864 specificity and cross-reactivity to alternative mutant RAS epitopes by Jurkat Reporter assay. […] The expression of TCR864 on primary CD8+ T cells is depicted in FIG. 30D.

[7] = system: wildtype RAS epitope; experiment: as above; assay type: cell-based; details: Jurkat Reporter cells; HLA-B*07:02-restricted TCR
Experimental: The validation of TCR831 expression by peptide-MHC multimer staining of lentiviral-transduced Jurkat Reporter cells is shown in FIG. 25A. Experiments were conducted to examine TCR831 avidity by Jurkat Reporter cells (FIG. 25B). Experiments were also conducted to assess TCR831 specificity and cross-reactivity to alternative mutant RAS epitopes by Jurkat Reporter assay. […] depicts TCR activation of Jurkat Reporter cells following coculture with A*11:01 positive RAS G12V tumor cell lines. FIG. 25E depicts the expression of TCR831 on primary CD8+ T cells. […] Cell line coloring corresponds to that in FIG. 25D.
Experiments were also conducted to further characterize the expression and function of TCR833. The validation of TCR833 expression by peptide-MHC multimer staining of lentiviral-transduced Jurkat Reporter cells is shown in FIG. 26A. FIG. 26B depicts the results of experiments assessing TCR833 avidity by Jurkat Reporter cells. Experiments were also conducted to assess TCR833 specificity and cross-reactivity to alternative mutant RAS epitopes by Jurkat Reporter assay. […] FIG. 26D depicts TCR833 activation of Jurkat Reporter cells following coculture with A*11:01 positive RAS G12V tumor cell lines.
as §5, with “conducted” for “done”, “TCR897” for “TCR847”, “27A.” for “29A.”, “27B” for “29B”, “TCR897 avidity by Jurkat Reporter cells. Experiments were conducted to assess TCR897” for “TCR”
as §4, §5, §6

[8] = target: RAS G12R (GA_R) (Homo sapiens, UniProt P01116+P01889, G12R); experiment: as above; assay type: cell-based; details: Jurkat Reporter cells
Experimental: as §5, §6

Row | Molecule | binding affinity of mRAS neoepitope for HLA-A*11:01 [2] | detection of mRAS epitope by HLA class I immunoprecipitation peptide elution and MS/MS [3] | detection of mRAS epitope by HLA class I immunoprecipitation peptide elution and MS/MS [4] | further results
1 | GADGVGKSAL (GA_D) [mRAS peptide, G12D, HLA-B*07:02] |  |  |  | detection of mRAS epitope by HLA class I immunoprecipitation peptide elution and MS/MS [1]: identified new epitopes
2 | VVGADGVGK [VV_D] | high binding affinity | detection |  | 
3 | VVVGADGVGK [VVV_D] | high binding affinity | detection | detection | 
4 | VVGARGVGK (VV_R) [mRAS peptide, G12R, HLA-A*03:01 and HLA-A*11:01] | high binding affinity | detection | detection | 
5 | VVGACGVGK [VV_C] | high binding affinity |  |  | 
6 | VVVGARGVGK (VVV_R) [mRAS peptide, G12R, HLA-A*03:01 and HLA-A*11:01] | high binding affinity |  |  | binding affinity of mRAS neoepitope for HLA-A*03:01 [5]: high binding affinity
7 | VVVGAVGVGK [VVV_V] | high binding affinity | detection | detection | binding affinity of mRAS neoepitope for HLA-A*03:01 [5]: high binding affinity
8 | B1 |  |  |  | reactivity to alternatively mutated RAS epitopes [6]: not wildtype or alternatively mutated; reactivity to wildtype [7]: not wildtype; specificity for RAS G12R (GA_R) [8]: exhibits specificity
